Test [1] deals with Human CD38 on CD38-positive myeloma cell lines ARP-1 and H929 (human, UniProt P28907 43-300). Kind of test: flow cytometry on ARP-1 cells, purified protein.
Experimental: The flow binding refers to the concentration of antibody required to achieve 50% of maximal mean fluorescence intensity. […] Reported value is the EC₅₀ in μg/mL.
(§1) The ability of the antibodies or antibody-interferon constructs to bind the human CD38-positive myeloma cell lines ARP-1 or H929 in flow cytometry-based assays was tested. ARP-1 cells or H929 cells (5×10⁵, as judged by trypan blue exclusion) were incubated with each protein or with a human IgG4 monoclonal antibody with irrelevant specificity protein construct at various concentrations in 50 μL of FACS buffer (PBS plus 1% fetal calf serum, FCS, 0.2M HEPES, 0.5M EDTA) in 96 well plates for 60 minutes on ice in the dark. Cells were washed three times with FACS buffer before incubation for 30 minutes in 50 μL of FACS buffer containing goat anti-human IgG (Fc-specific, conjugated to fluorescein isothiocyanate, FITC; Sigma-Aldrich, St. Louis, Mo.). After washing three times with FACS buffer, cells were fixed with 50 μL of PBS containing 4% formaldehyde v/v and incubated at 4° C. in the dark for 16 hours. Incubated cells in suspension were diluted with an additional 150 μL of FACS buffer and analyzed for binding by flow cytometry on a FACS Canto II (BD Biosciences, San Diego, Calif.) using forward scatter, side scatter and fluorescence intensity in the FITC channel. The value reported is the mean fluorescence intensity (MFI).
For test [2], the target named is T1, Human CD38 (human, UniProt P28907 43-300). In words: SPR (Biacore), the experiment for all other antibodies of Table 7.
The target in test [3] is T1, Human CD38. Kind of test: SPR (Biacore), the separate experiment in which X02.107 was evaluated.
Test [4] deals with T1, Human CD38. Kind of test: SPR (Biacore), antibody from supernatant captured on Protein A, human CD38 injected, 1:1 fit.
Experimental: The capacity of anti-CD38 antibodies and anti-CD38-attenuated IFN fusion proteins to bind to human CD38 were measured using unpurified transfected cell supernatant prepared 7:1 with Non Specific Binding Reducer (GE Healthcare, Piscataway, N.J.). […] FC2 (or FC4) was used as a reference throughout the experiments. The experiments were run at 37° C. in HBS-P+ buffer (0.01 M HEPES, 0.15 M NaCl, 0.005% v/v Surfactant P20, pH 7.4). At a flow rate of 20 l/min, both flow cells were regenerated with 10 μL 50 mM sodium hydroxide before 40 μL supernatant containing the protein was passed over FC1 (or FC3) only. 301 μL of CD38 (10 g/mL in running buffer) or 30 μL running buffer was injected over FC1 and FC2 with a 5 minute dissociation time. Both surfaces were regenerated twice with sodium hydroxide. Results were generated using the BIAevaluation software provided with the machine. Microsoft Excel was used for calculations. BIAevaluation software automatically subtracted the reference sensorgram giving a trace of FC2-1 (or FC4-3) for each sample. A double reference was performed for each antibody tested by subtracting the sensorgram with a CD38 injection from the sensorgram with a blank running buffer injection. […] BIAevalution was used to fit the sensorgram using a Langmuir 1:1 equation in order to generate an equilibrium association constant (KD)
In test [5] the target is T2, Human CD38 on CD38-positive myeloma cells (ARP-1, H929) (human, UniProt P28907 43-300).
T2 construct: Endogenous CD38 on the human myeloma cell lines ARP-1 and H929, used in flow cytometry; also called NCI-H929
In words: flow cytometry, ARP-1 cells (CD38-positive).
Experimental: as §1

Test [6] has as its target T1, Human CD38. In words: SPR (Biacore), antibody from supernatant captured on Protein A, human CD38 injected, 1:1 fit; separate experiment in which X02.1 gave 2.7 × 10^-8.

The record followed here is patent US20180305460A1 (Teva, published 2018).

B1: A02.1 (antibody)
heavy: QLQLQESGPGLVKPSETLSLTCTVSGGSISSSSYYWSWIRQHPGKGLEWIGYIYYSGSTNYNPSLKSRVTISVDTLKNQISLRLTSVTAADTAVYYCARVGGAGGWPMDVWGQGTTVTVSS
light: QAVLTQPASLSASPGESARLTCTLPSDINVRYYNIYWYQQKPGSPPRYLLYYYSDSHKGQGSGVPSRFSGSKDVSTNSGILLISGLQSEDEADYYCMTWSSNGSGVFGGGTQLTVLGQPKAAPSVTLFPPSSEELQANKATLVCLISDFYPGAVTVAWKADSSPVKAGVETTTPSKQSNNKYAASSYLSLTPEQWKSHRSYSCQVTHEGSTVEKTVAPTECS
notes: Anti-CD38 IgG4 fused to attenuated IFN-alpha2b A145D at the heavy chain C-terminus; also called X355/02-HC-L0-IFN-alpha (A145D) IgG4
As to B1, the EC50 in test [1] was 1.45 µg/mL.

B2: X02.1 (antibody, human IgG4 S228P)
heavy: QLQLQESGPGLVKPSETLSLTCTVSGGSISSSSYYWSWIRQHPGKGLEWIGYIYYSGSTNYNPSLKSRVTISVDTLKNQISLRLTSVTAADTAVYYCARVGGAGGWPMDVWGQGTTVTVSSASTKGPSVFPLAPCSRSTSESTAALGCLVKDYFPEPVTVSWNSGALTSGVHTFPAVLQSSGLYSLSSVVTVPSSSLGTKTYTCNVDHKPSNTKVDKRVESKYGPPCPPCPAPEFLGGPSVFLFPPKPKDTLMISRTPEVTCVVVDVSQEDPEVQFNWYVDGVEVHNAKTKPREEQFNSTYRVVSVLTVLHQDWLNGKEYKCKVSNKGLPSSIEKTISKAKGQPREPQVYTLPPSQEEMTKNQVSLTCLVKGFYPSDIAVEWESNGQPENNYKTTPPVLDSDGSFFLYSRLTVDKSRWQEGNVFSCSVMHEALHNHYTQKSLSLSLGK
VL: QAVLTQPASLSASPGESARLTCTLPSDINVRYYNIYWYQQKPGSPPRYLLYYYSDSHKGQGSGVPSRFSGSKDVSTNSGILLISGLQSEDEADYYCMTWSSNGSGVFGGGTQLTVLG
notes: Human IgG4 S228P, not fused to IFN; also called parental antibody X02.1
Consider B2, for which the values for the dissociation constant Kd with Human CD38 [2] and in the test with Human CD38 [3] were 0.378 nM and 27 nM, respectively.

B3: X02.69 (antibody, human IgG4 S228P)
heavy: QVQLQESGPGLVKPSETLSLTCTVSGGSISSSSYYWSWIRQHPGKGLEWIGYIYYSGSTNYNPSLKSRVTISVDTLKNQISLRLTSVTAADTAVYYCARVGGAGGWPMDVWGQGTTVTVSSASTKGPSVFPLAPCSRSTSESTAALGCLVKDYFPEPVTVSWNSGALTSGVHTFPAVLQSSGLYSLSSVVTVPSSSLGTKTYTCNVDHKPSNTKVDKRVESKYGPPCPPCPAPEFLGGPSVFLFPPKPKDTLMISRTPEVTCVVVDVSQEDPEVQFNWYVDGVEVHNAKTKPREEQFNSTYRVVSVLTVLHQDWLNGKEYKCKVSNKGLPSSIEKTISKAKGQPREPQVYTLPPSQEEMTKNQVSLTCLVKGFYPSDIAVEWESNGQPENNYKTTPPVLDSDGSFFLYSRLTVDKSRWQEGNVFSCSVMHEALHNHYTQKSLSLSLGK
VL: QAVLTQPASLSASPGESARLTCTLPSDINVRYYNIYWYQQKPGSPPRYLLYYYSDSHKGQGSGVPSRFSGSKDVSTNSGILLISGLQSEDEADYYCMTWSSNGSGVFGGGTQLTVLG
notes: IgG4 S228P; VH Q2V relative to X02.1
Regarding B3, binding with Human CD38 [4] was characterised by a dissociation constant (Kd) of 0.0368 nM. The same molecule yielded an EC50 in test [5] of 16.8 µg/mL.

B4: X02.107 (antibody)
heavy: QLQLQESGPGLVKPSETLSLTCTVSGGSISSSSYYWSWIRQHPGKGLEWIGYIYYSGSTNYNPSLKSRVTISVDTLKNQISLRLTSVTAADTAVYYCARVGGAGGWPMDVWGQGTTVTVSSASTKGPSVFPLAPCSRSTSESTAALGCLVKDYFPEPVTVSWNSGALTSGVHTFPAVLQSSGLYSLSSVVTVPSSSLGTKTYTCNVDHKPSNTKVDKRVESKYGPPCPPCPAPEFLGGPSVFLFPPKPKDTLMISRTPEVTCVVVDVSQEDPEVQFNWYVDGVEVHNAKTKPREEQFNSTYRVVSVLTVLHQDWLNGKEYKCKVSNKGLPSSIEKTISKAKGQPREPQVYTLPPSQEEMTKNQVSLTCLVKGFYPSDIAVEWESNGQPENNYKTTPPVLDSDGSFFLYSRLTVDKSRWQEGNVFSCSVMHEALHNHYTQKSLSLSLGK
VL: QAVLTQPASLSASPGESARLTCTLPSDINVRYYNIYWYQQKPGSPPRYLLYYYSDSHKGQGSGVPSRFSGSKDVSTNSGILLISGLQSEDIATYYCMTWSSNGSGVFGGGTQLTVLG
notes: IgG4 S228P with the X02.1 VH; VL E83I, D85T relative to A02.1
With B4, binding with Human CD38 [6] was put at a Kd of 24.7 nM.
